In patent US20240336656A1 (Bicycle, published 2024):
Starred links: 1 amine or outer side, 2 acyl side, 3 side chain; linkers in the order of their positions; H or OH if unused. Positions of bridges follow the written chain, without caps; N, C: chain ends. Non-standard residues stand in square brackets, D forms with d. Chains are numbered I, II in the order given. No end group written: not given here. PYA = 4-pentynoic acid on Lys NZ, clicked (triazole) to linker azide; TATA = O=C(CC[*:1])N1CN(C(=O)CC[*:2])CN(C(=O)CC[*:3])C1; 1Nal = N[C@@H](Cc1cccc2ccccc12)C(=O)O; Hyp = O=C(O)[C@@H]1C[C@@H](O)CN1; hArg = N=C(N)NCCCC[C@H](N)C(=O)O; tBuAla = CC(C)(C)C[C@H](N)C(=O)O; Nle = CCCC[C@H](N)C(=O)O

What was measured:
[1] = biological target: T1, CD137 (TNFRSF9) on cells (human, UniProt Q07011 24-255); experiment: cell-based or functional assay
[2] = biological target: T1, CD137 (TNFRSF9) on cells; experiment: cell-based or functional assay; remark: listed apart in the source

T1 sequence (Q07011 24-255): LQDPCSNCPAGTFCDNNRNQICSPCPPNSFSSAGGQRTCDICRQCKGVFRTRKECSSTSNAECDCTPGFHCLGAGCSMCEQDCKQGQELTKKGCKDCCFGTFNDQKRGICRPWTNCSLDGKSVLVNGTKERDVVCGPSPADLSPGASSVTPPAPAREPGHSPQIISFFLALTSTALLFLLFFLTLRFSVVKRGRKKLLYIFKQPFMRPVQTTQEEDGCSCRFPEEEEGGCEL

B1: BCY11863 (peptide)
peptide 1: {N‑(acid-PEG3)‑N‑bis(PEG3-azide)}-CP[1Nal][dD]CM[hArg]DWSTP[Hyp]WC
peptide 2: Ac-C[tBuAla]PE[dK](PYA)PYCFADPY[Nle]CA
modifications: linker I:1-I:5-I:15, II:1-II:8-II:15 via TATA; also: heterotandem: one BCY8116 (chain 1) joined through N-(acid-PEG3)-N-bis(PEG3-azide) linker to two BCY8928 (chain 2), triazole via D-Lys(PYA)
EC50 (nM) of fold induction over background, CD137 reporter assay, coculture with CT26#7 (mouse) [1]: 0.14 nM | EC50 (nM) of fold induction over background, CD137 reporter assay, coculture with HT1376 (human) [1]: 0.52 nM | EC50 (nM) of fold induction over background, CD137 reporter assay, coculture with MC38#13 (mouse) [1]: 0.31 nM | EC50 (nM) of fold induction over background, CD137 reporter assay, coculture with MDA-MB-468 (human) [1]: 0.23 nM | EC50 (nM) of fold induction over background, CD137 reporter assay, coculture with NCI-H292 (human) [1]: 0.28 nM | EC50 (nM) of fold induction over background, CD137 reporter assay, coculture with NCI-H322 (human) [1]: 0.33 nM | EC50 (nM) of fold induction over background, CD137 reporter assay, coculture with T47D (human) [1]: 0.42 nM | EC50 of IFNγ secretion, human PBMC co-culture with 4T1-D02 (mouse) [2]: 40 pM | EC50 of IFNγ secretion, human PBMC co-culture with H322 (human) [2]: 850 pM | EC50 of IFNγ secretion, human PBMC co-culture with MC38 # 13 (mouse) [2]: 170 pM | EC50 of IFNγ secretion, human PBMC co-culture with T-47D (human) [2]: 80 pM | EC50 of IL-2 secretion, human PBMC co-culture with 4T1-D02 (mouse) [2]: 160 pM | EC50 of IL-2 secretion, human PBMC co-culture with H322 (human) [2]: 840 pM | EC50 of IL-2 secretion, human PBMC co-culture with HT1376 (human) [2]: 390 pM | EC50 of IL-2 secretion, human PBMC co-culture with MC38 # 13 (mouse) [2]: 250 pM | EC50 of IL-2 secretion, human PBMC co-culture with T-47D (human) [2]: 200 pM
